target: GFP-FcγRIIIa, extracellular region of human FcγRIIIa (residues 19-193, V158 allotype) (human) (UniProt P08637); test: SPR

Substance | Kd
Human IgG1 Fc F241I with G2F N-glycan (domain or fragment) | 2100 nM
Human IgG1 Fc F241I/F243I with G2F N-glycan (domain or fragment) | 10000 nM
Human IgG1 Fc F241I/F243I with a single GlcNAc residue (domain or fragment) | 6300 nM
Human IgG1 Fc F241S with G2F N-glycan (domain or fragment) | 1500 nM
Human IgG1 Fc F241S/F243S with G2F N-glycan (domain or fragment) | 29000 nM
Human IgG1 Fc F241S/F243S with a single GlcNAc residue (domain or fragment) | 3500 nM
Human IgG1 Fc F243S with G2F N-glycan (domain or fragment) | 1900 nM
Human IgG1 Fc K246F with G2F N-glycan (domain or fragment) | 340 nM
Human IgG1 Fc wt (residues 216-447) with G2F N-glycan (domain or fragment) | 550 nM
Human IgG1 Fc wt with a single GlcNAc residue (GlcNAc-Fc) (domain or fragment) | 2400 nM

target: Human IgG1 Fc wt (residues 216-447) with G2F N-glycan (human); test: pull-down

Substance | Kd
GFP-FcγRIIIa, extracellular region of human FcγRIIIa (residues 19-193, V158 allotype) (from UniProt P08637 19-193) (receptor) | 500 nM

target: GFP-FcγRIIIa, extracellular region of human FcγRIIIa (residues 19-193, V158 allotype) (human) (UniProt P08637); test: ITC

Substance | Kd
Human IgG1 Fc wt (residues 216-447) with G2F N-glycan (domain or fragment) | 1200 nM

Reference: paper PMC4192013
